Values of other authors, collected in article PMC11182772.

Molecular target: Scc1-SA2 (Homo sapiens) (UniProt O60216)
Sequence (O60216 whole entry, chain 1 of 2): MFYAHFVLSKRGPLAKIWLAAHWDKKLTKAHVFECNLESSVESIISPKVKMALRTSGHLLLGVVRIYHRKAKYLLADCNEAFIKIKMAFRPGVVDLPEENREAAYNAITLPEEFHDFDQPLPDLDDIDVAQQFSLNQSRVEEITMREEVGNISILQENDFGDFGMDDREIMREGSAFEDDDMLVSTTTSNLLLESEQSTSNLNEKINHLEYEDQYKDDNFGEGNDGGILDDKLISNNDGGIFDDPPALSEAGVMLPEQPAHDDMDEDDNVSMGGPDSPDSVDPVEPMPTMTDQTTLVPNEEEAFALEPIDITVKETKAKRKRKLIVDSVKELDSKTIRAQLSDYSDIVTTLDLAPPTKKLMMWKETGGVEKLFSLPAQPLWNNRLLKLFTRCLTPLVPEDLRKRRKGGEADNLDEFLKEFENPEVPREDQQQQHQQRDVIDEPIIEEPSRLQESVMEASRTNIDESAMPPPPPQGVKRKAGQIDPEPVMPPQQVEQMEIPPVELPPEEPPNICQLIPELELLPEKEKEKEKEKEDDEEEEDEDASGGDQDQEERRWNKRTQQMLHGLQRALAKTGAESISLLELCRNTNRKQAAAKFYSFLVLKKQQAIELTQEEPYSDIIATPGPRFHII
Sequence (Q8N3U4 whole entry, chain 2 of 2, further chain): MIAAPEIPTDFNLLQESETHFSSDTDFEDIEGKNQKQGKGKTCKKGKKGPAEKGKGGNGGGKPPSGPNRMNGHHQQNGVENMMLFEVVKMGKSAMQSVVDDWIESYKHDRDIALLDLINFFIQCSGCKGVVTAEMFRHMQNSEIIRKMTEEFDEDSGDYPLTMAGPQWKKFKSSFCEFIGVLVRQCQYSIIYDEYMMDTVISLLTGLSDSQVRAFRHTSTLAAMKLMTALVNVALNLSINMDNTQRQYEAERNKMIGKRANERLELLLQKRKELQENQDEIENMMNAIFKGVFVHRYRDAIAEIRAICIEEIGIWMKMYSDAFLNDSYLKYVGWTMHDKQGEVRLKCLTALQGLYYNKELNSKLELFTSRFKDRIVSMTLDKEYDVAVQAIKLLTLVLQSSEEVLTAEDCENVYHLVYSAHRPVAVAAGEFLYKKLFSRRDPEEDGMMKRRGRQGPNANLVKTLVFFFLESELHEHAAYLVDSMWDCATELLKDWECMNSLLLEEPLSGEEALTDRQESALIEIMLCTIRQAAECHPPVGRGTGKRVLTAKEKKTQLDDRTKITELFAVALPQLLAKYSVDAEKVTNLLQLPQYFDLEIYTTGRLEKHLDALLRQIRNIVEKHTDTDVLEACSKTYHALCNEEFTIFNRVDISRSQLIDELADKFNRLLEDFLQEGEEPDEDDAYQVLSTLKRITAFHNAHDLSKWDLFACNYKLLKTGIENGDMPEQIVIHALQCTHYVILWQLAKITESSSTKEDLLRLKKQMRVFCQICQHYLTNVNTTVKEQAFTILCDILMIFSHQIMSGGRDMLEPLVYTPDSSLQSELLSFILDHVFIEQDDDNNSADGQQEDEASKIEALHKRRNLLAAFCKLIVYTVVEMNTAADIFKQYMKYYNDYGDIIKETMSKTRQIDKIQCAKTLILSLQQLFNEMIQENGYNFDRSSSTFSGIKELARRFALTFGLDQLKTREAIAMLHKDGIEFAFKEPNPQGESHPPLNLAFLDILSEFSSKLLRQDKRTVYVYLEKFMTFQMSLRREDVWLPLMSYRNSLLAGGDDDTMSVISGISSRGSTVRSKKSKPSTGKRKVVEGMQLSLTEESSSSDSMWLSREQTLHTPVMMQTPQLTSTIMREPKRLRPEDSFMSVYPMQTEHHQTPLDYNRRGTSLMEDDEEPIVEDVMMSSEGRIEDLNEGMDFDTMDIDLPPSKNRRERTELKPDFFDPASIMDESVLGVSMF

For “CENP-U DVFDF motif peptide (from UniProt Q71F23)”, the Kd is given as 4 µM.
